Measurements taken from patent US7026125, “Heterodimers of retinoid X receptors (RXRS) and other steroid hormone receptors” (Ligand Pharmaceuticals).

T1: TRα (UniProt P10827-2 P10827-2:1-410)
T1 sequence: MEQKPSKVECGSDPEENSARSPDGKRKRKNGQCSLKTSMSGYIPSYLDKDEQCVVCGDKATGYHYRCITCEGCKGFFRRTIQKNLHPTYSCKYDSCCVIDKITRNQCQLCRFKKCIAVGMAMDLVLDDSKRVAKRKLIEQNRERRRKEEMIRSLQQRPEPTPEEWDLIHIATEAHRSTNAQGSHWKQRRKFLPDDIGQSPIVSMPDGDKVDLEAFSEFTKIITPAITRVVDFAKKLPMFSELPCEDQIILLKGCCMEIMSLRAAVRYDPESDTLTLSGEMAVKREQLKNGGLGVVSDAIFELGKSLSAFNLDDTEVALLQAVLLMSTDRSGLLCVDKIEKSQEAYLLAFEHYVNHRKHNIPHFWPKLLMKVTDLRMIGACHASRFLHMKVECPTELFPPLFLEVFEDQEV


Assays:
Conditions in all cases: label: 32P
[1] = biological target: T2, TRα/RXRα heterodimer (UniProt P10827-2;P19793 P10827-2:1-410,P19793:1-462); test: EMSA; TRα binding abolished by RXRα
T2 sequence (P19793 whole entry, one chain of several): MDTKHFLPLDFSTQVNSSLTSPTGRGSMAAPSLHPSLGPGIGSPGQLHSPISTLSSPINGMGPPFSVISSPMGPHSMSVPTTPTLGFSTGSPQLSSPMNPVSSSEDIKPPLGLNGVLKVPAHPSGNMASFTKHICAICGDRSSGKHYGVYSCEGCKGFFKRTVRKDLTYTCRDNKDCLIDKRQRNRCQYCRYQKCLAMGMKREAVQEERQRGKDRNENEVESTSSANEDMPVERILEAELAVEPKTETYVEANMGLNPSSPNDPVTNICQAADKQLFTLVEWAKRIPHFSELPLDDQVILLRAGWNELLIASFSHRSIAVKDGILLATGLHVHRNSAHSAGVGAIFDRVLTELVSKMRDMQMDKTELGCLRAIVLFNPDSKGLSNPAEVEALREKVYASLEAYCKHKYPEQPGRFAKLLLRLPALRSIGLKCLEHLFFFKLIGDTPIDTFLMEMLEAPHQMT
Description: (§1) In vitro translated receptor protein (1 to 5 μl depending on the translation efficiency) was incubated with the ^32P-labeled oligonucleotides in a 20-μl reaction mixture containing 10 mM hepes buffer, pH 7.9, 50 mM KCl, 1 mM DTT, 2.5 mM MgCl, 10% glycerol, and 1 μg of poly(dI-dC) at 25° C. for 20 minutes. In general, relative low receptor concentration was used to obtain the clear effect of heterodimer formation. The reaction mixture was then loaded on a 5% nondenaturing ployacrylamide gel containing 0.5×TBE (1×TBE=0.089 M Tris-borate, 0.089 M boric acid, and 0.002 M EDTA). To analyze the effect of RXRα or the nuclear proteins on receptor DNA binding activity, RXRα or the cell extracts were preincubated with receptor protein at room temperature for 10 minutes before performing the DNA binding assay. When antibody was used, 1 μl of the antiserum was incubated with the specific translation products at room temperature for 45 minutes before performing the experiments described above.

[2] = biological target: RXRα (Homo sapiens, UniProt P19793 P19793:1-462); test: EMSA; at concentration used
RXRα, sequence (P19793 whole entry, one chain of several): as above
Description: (§2) (b) Gel retardation analysis of RXRα-TRα interaction using different DNA response elements. Gel retardation assays were carried out essentially as described in FIG. 1a but using different response elements. (−) represents the binding of unprogrammed reticulocyte lysate.
as §1

[3] = biological target: T1, TRα; test: EMSA; about as efficient as palindromic TRE
Description: as §1

[4] = biological target: T1, TRα; test: EMSA
Description: as §1

[5] = biological target: T2, TRα/RXRα heterodimer; test: EMSA; strongly enhanced and upshifted versus TRα alone
Description: as §1

[6] = biological target: T1, TRα; test: EMSA; one complex
Description: as §1

[7] = biological target: T2, TRα/RXRα heterodimer; test: EMSA; strong binding
Description: as §1

[8] = biological target: T1, TRα; test: EMSA; no visible binding
Description: as §2, §1

| Binder | binding result [1] | binding result [2] | binding result [3] | binding result [4] | binding result [5] | binding result [6] | binding result [7] | binding result [8] |
| --- | --- | --- | --- | --- | --- | --- | --- | --- |
| TRE/half (dsDNA) DNA 1: GATCTCAGGTCAGATC DNA 2: GATCTGACCTGAGATC | no binding | no binding | binds |  |  |  |  |  |
| ERE palindrome (dsDNA) DNA 1: GATCTCAGGTCACTGTGACCTGAGATC DNA 2: GATCTCAGGTCACAGTGACCTGAGATC | no binding | no binding |  | binds |  |  |  |  |
| TRE/OP (inverted repeat, 4 bp spacer) (dsDNA) DNA 1: GATCCTGACCTGAGATCTCAGGTCAGGATC DNA 2: GATCCTGACCTGAGATCTCAGGTCAGGATC |  | no binding |  |  | binds | binds |  |  |
| βRARE (dsDNA) DNA 1: GATCAGGGTTCAGGCAAAGTTCACGATC DNA 2: GATCGTGAACTTTGCCTGAACCCTGATC |  | no binding |  |  |  |  | binds | no binding |
